Data taken from US20140179896A1 (published 2014).

Assays:
[1] = molecular target: T1, human vascular endothelial growth factor receptor-2 Fc chimera (KDR-Fc) (human, UniProt P35968 20-764); assay: radioactive equilibrium binding assay, 1 nM KDR-Fc, % of input bound
T1 construct: range 1-764; also called human VEGFR-2; not shown: human IgG1 Fc
Method in brief: (§1)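 ³⁵S-Met-labeled binder protein, made by reticulocyte-lysate translation and Flag-purified, held at 0.2 or 0.5 nM with receptor-Fc (0–200 nM) for 1 h at 30° C in buffer B. Complexes captured on Protein A beads, washed, KOH-eluted. Bound signal given as % of input radioactivity minus bead-only background; one-site fit.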
T1 sequence (P35968 20-764 limits assumed, change not shown, form in doubt): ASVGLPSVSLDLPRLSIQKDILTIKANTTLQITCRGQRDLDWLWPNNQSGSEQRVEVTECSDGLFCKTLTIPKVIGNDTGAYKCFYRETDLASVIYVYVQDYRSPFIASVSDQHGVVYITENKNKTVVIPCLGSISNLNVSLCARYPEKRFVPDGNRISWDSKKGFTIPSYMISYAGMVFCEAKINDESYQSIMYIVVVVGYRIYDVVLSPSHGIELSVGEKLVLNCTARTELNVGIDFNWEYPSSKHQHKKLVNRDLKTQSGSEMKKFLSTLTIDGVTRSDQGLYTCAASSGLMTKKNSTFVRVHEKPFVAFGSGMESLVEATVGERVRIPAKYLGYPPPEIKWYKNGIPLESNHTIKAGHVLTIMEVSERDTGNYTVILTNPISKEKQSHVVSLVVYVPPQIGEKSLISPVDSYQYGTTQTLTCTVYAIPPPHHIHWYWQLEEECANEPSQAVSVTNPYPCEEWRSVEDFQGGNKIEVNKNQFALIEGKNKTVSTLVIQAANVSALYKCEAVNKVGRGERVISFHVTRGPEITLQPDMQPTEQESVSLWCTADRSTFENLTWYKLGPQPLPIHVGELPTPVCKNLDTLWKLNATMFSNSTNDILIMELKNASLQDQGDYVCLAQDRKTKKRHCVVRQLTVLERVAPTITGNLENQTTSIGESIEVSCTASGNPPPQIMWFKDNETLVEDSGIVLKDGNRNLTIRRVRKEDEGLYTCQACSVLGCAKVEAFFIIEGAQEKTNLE

[2] = molecular target: T2, mouse vascular endothelial growth factor receptor-2 Fc chimera (Flk-1-Fc) (mouse, UniProt P35918 20-762); assay: radioactive equilibrium binding assay, 1 nM Flk-1-Fc, % of input bound
T2 construct: Bought from R&D Systems; also called mouse VEGFR-2; not shown: Fc part of the purchased chimera, not specified
Method in brief: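 ³⁵S-Met-labeled fibronectin-scaffold binders, made by reticulocyte lysate translation (30° C, 1 h) and Flag-purified, were held at 0.2 or 0.5 nM and incubated with 0–200 nM VEGF-R2-Fc for 1 h at 30° C in buffer B. Complexes were captured on Protein A magnetic beads, washed, KOH-eluted and counted.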

[3] = molecular target: T3, human vascular endothelial growth factor receptor-2 Fc chimera (KDR-Fc) (human, UniProt P35968 20-764); assay: radioactive equilibrium binding, 1 nM KDR-Fc
T3 construct: range 1-764; purchased from R&D Systems; also called hKDR; human VEGF-R2-Fc; not shown: human IgG1 Fc
Method in brief: as §1
T3 sequence (P35968 20-764 limits assumed, change not shown, form in doubt): as above

T2 sequence (P35918 20-762, change not shown): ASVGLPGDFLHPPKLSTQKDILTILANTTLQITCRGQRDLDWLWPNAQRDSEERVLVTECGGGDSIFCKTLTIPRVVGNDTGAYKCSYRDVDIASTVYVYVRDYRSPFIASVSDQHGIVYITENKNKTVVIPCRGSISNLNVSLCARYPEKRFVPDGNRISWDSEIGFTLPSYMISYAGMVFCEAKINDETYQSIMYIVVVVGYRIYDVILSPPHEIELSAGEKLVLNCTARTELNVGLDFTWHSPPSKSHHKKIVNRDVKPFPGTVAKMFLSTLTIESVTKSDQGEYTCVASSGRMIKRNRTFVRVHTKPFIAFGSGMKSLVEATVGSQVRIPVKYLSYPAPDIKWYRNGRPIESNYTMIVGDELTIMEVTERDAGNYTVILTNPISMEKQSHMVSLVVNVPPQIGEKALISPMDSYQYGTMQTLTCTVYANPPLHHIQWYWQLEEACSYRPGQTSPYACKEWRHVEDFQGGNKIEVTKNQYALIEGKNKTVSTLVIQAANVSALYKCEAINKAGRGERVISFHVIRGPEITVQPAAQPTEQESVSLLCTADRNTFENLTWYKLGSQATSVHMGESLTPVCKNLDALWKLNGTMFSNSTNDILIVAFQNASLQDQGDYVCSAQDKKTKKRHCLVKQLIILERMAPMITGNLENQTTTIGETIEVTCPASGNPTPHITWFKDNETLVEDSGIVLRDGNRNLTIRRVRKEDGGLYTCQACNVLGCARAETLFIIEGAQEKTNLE

| Binder | Binding to 1 nM KDR, % [1] | Binding to 1 nM Flk-1, % [2] | Binding to 1 nM KDR, % [3] |
| --- | --- | --- | --- |
| E23 (designed binder, 10Fn3 clone, Del 1-8) EVVAATPTSLLISWRHHPHFPTRYYRITYGETGGNSPVQEFTVPLQPPTATISGLKPGVDYTITGYAVTVHWNGRELMTPISINYRT | 36% | 7% | – |
| G4 (designed binder, 10Fn3 clone, Del 1-8) EVVAATPTSLLISWRHPHFPTRYYRITYGETGGNSPVQEFTVPLQPPTATISGLKPGVDYTITGYAVTIEKNGRHLNIPISINYRT | 21% | 12% | – |
| FE (designed binder) EVVAATPTSLLISWRHPHFPTRYYRITYGETGGNSPVQEFTVPLQPPTATISGLKPGVDYTITGYAVTVERDGRELNIPISINYRT | 12% | 8% | – |
| G2 (designed binder, 10Fn3 clone, Del 1-8) EVVAATPTSLLISWRHPHFPTRYYRITYGETGGNSPVQEFTVPLQPPTATISGLKPGVDYTITGYAVTLERNNRELLTPISINYRT | 25% | 9% | – |
| F9 (designed binder, 10Fn3 clone, Del 1-8) EVVAATPTSLLISWRHPHFPTRYYRITYGETGGNSPVQEFTVPLQPPTATISGLKPGVDYTITGYAVTVEPNGRVLNTPISINYRT | 32% | 23% | – |
| F11 (designed binder, 10Fn3 clone, Del 1-8) EVVAATPTSLLISWRHPHFPTRYYRITYGETGGNSPVQEFTVPLQPPTATISGLKPGVDYTITGYAVTVEQNGRVLNTPISINYRT | 20% | 8% | – |
| G3 (designed binder, 10Fn3 clone, Del 1-8) EVVAATPTSLLISWRHPHFPTRYYRITYGETGGNSPVQEFTVPLQPPTATISGLKPGVDYTITGYAVTMERSGRELMTPISINYRT | 28% | 10% | – |
| F8 (designed binder, 10Fn3 clone, Del 1-8) EVVAATPTSLLISWRHPHFPTRYYRITYGETGGNSPVQEFTVPLQPPTATISGLKPGVDYTITGYAVTVEHNGRTSFTPISINYRT | 33% | 13% | – |
| 2C6 PR3 (designed binder, tag left out) VSDVPRDLEVVAATPTSLLISWRHPHFPTRYYRITYGETGGNSPVQEFTVPLQPPTATISGLKPGVDYTITGYAVTVEPNGHKLAIPISINYRT | – | – | 5% |
| 2D12 PR3 (designed binder, tag left out) VSDVPRDLEVVAATPTSLLISWRHPHFPTRYYRITYGETGGNSPVQEFTVPLQPPTATISGLKPGVDYTITGYAVTEGWIDHEIMIPISINYRT | – | – | 14% |
| 2F3 PR3 (designed binder, tag left out) VSDVPRDLEVVAATPTSLLISWRHPHFPTRYYRITYGETGGNSPVQEFTVPLQPPTATISGLKPGVDYTITGYAVTLSHYGKELRTPISINYRT | – | – | 8% |
| 2′F7-PR4 (designed binder, tag left out) VSDVPRDLEVVAATPTSLLISWRHPHFPTRYYRITYGETGGNSPVQEFTVPLQPPTATISGLKPGVDYTITGYAVTLGLRDRELFVPISINYRT | – | – | 5% |
| 2′B9-PR4 (designed binder, tag left out) VSDVPRDLEVVAATPTSLLISWRHPHFPTRYYRITYGETGGNSPVQEFTVPLQPPTATISGLKPGVDYTITGYAVTVGPTDHELLTPISINYRT | – | – | 7% |
| 2H12 PR3 (designed binder, tag left out) VSDVPRDLEVVAATPTSLLISWRHPHFPTRYYRITYGETGGNSPVQEFTVPLQPPTATISGLKPGVDYTITGYAVTEGYQNHELSVPISINYRT | – | – | 10% |
| 2C9 PR3 (designed binder, tag left out) VSDVPRDLEVVAATPTSLLISWRHPHFPTRYYRITYGETGGNSPVQEFTVPLQPPTATISGLKPGVDYTITGYAVTEAPNGRELRTPISINYRT | – | – | 7% |

Now from value to binder:

| Binding to 1 nM KDR, % [1] | Binding to 1 nM Flk-1, % [2] | Binding to 1 nM KDR, % [3] | Binder |
| --- | --- | --- | --- |
| 27% | 15% | – | F3 (designed binder, 10Fn3 clone, Del 1-8) EVVAATPTSLLISWRHPHFPTRYYRITYGETGGNSPVQEFTVPLQPPTATISGLKPGVDYTITGYAVTVERDGRKLYTPISINYRT |
| 37% | 2% | – | F6 (designed binder, 10Fn3 clone, Del 1-8) EVVAATPTSLLISWRHPHFPTRYYRITYGETGGNSPVQEFTVPLQPPTATISGLKPGVDYTITGYAVTVEQNGRVLMTPISINYRT |
| 30% | 7% | – | F7 (designed binder, 10Fn3 clone, Del 1-8) EVVAATPTSLLISWRHPHFPTRYYRITYGETGGNSPVQEFTVPLQPPTATISGLKPGVDYTITGYAVTVEHNGRVLNIPISINYRT |
| 29% | 1% | – | F10 (designed binder, 10Fn3 clone, Del 1-8) EVVAATPTSLLISWRHPHFPTRYYRITYGETGGNSPVQEFTVPLQPPTATISGLKPGVDYTITGYAVTMAPNGRELLTPISINYRT |
| 31% | 18% | – | F4 (designed binder, 10Fn3 clone, Del 1-8) EVVAATPTSLLISWRHPHFPTRYYRITYGETGGNSPVQEFTVPLQPPTATISGLKPGVDYTITGYAVTVERDGRTLRTPISINYRT |
| – | – | 10% | 2H10 PR3 (designed binder, tag left out) VSDVPRDLEVVAATPTSLLISWRHPHFPTRYYRITYGETGGNSPVQEFTVPLQPPTATISGLKPGVDYTITGYAVTLAPSARELMTPISINYRT |
| – | – | 12% | 2′G11-PR4 (designed binder, tag left out) VSDVPRDLEVVAATPTSLLISWRHPHFPTRYYRITYGETGGNSPVQEFTVPLQPPTATISGLKPGVDYTITGYAVTGGQMNRVLMTPISINYRT |
| – | – | 4% | 2′B4-PR4 (designed binder, tag left out) VSDVPRDLEVVAATPTSLLISWRHPHFPTRYYRITYGETGGNSPVQEFTVPLQPPTATISGLKPGVDYTITGYAVTSGHNGHEVMTPISINYRT |
| – | – | 4% | 2′F6-PR4 (designed binder, tag left out) VSDVPRDLEVVAATPTSLLISWRHPHFPTRYYRITYGETGGNSPVQEFTVPLQPPTATISGLKPGVDYTITGYAVTLGWNDHELYIPISINYRT |
| – | – | 3% | 2F10 PR3 (designed binder, tag left out) VSDVPRDLEVVAATPTSLLISWRHPHFPTRYYRITYGETGGNSPVQEFTVPLQPPTATISGLKPGVDYTITGYAVTLALFDHELLTPISINYRT |
| – | – | 6% | 2G12 PR3 (designed binder, tag left out) VSDVPRDLEVVAATPTSLLISWRHPHFPTRYYRITYGETGGNSPVQEFTVPLQPPTATISGLKPGVDYTITGYAVTSGQNDHALLIPISINYRT |
| – | – | 5% | 2′C7-PR4 (designed binder, tag left out) VSDVPRDLEVVAATPTSLLISWRHPHFPTRYYRITYGETGGNSPVQEFTVPLQPPTATISGLKPGVDYTITGYAVTWDQNGHVLLTPISINYRT |
| – | – | 6% | 2′A11-PR4 (designed binder, tag left out) VSDVPRDLEVVAATPTSLLISWRHPHFPTRYYRITYGETGGNSPVQEFTVPLQPPTATISGLKPGVDYTITGYAVTEDIRVLWLNTTISINYRT |
| – | – | 11% | 2′D5-PR4 (designed binder, tag left out) VSDVPRDLEVVAATPTSLLISWRHPHFPTRYYRITYGETGGNSPVQEFTVPLQPPTATISGLKPGVDYTITGYAVTVAWNDHMLMTPISINYRT |
| – | – | 11% | 2′A1-PR4 (designed binder, tag left out) VSDVPRDLEVVAATPTSLLISWRHPHFPTRYYRITYGETGGNSPVQEFTVPLQPPTATISGLKPGVDYTITGYAVTSGHNDHMLMIPISINYRT |
| – | – | 9% | 2G9 PR3 (designed binder, tag left out) VSDVPRDLEVVAATPTSLLISWRHPHFPTRYYRITYGETGGNSPVQEFTVPLQPPTATISGLKPGVDYTITGYAVTEIYNDHELMTPISINYRT |
| – | – | 6% | 2C12 PR3 (designed binder, tag left out) VSDVPRDLEVVAATPTSLLISWRHPHFPTRYYRITYGETGGNSPVQEFTVPLQPPTATISGLKPGVDYTITGYAVTDAQNVQAPIAQISINYRT |
